Reference: paper PMC8842248 (Journal of Medicinal Chemistry, 2022)
*: point of attachment. fluorescein = fluorescein label on the N-terminus; Farnesyl = CC(C)=CCC/C(C)=C/CC/C(C)=C/C*; FAM = fluorescein

B1: KRAS S3I1 peptide, fluorescein-DGKKKKKKSSTIC(OMe)-farnesyl (peptide)
peptide: fluorescein-DGKKKKKKSSTIC(Farnesyl)-OMe
notes: also called KRAS S3I1 variant; source: synthetic peptide (JPT Innovative Peptide Solutions)
B2: fluorescein-labeled KRAS HVR peptide, FAM-KKKKKKSKTKC(OMe)-Far (peptide)
peptide: {FAM}-KKKKKKSKTKC(Farnesyl)-OMe
notes: wild-type KRAS (KRAS4B) HVR peptide ending at the farnesylated C185; also called KRAS WT peptide

Key:
Settings in all cases: both partners purified
[1] = molecular target: T1, PDE6D M20K, untagged (UniProt O43924 1-150, M20K); test: fluorescence polarisation; fluorescein-labeled KRAS S3I1 peptide at 5 nM, PDE6D 0-512 nM in twofold dilutions; 20 mM Tris pH 7.5, 150 mM NaCl, 2 mM DTT; quadratic fit in GraFit
T1 construct: PDE6D with M20K; Printed as 'untagged PDE6D.M20K' in the pulldown and release assay; also called attenuated PDE6D

[2] = molecular target: T2, PDE6D (phosphodiesterase 6 delta), wild type, polyhistidine tag removed (UniProt O43924 1-150); test: as above
T2 construct: Cloned into pRSF-Duet and pBDDB-SPR3; also called PDE6D WT; WT PDE6D; source: E. coli BL21 DE3, purified (HisTrap, TEV protease, reverse HisTrap, Superdex S75)

[3] = molecular target: T2, PDE6D (phosphodiesterase 6 delta), wild …; test: fluorescence polarisation; fluorescein-…(OMe)-Far at 500 nM, PDE6D 20 to 0.156 μM in twofold dilutions, without or with compound at 500 μM; 20 mM Tris pH 7.5, 150 mM NaCl, 2 mM DTT, 5% DMSO

Binder | Kd [1] | Kd [2] | binding result [3]
B1 | 2.62 ± 1.7 nM | 0.05 nM | 
B2 |  |  | binds
